Test: soluble on expression in E. coli; label from the status in PepcDB or PDB records

Row | Sequence | soluble on expression in E. coli
1 | MQMMEQFYPKVSIVIPVYNGSDYMREAIDSALGQTYGNIEVIVVNDGSSDGGLTHEIALSYGGNIRYFAKENGGVASALNFAIRMMDGEYFSWLSHDDIYYPNKIETQIGYLAEHDRNAILYSDFELIDCLSKVIKPVNAGEIPPEQFLYNLITIGHLNGCTLLVPKRCFEETGFFDESLRSTQDYALWFTFAQKYRFEQIRKVLVKYRTHSNQGSYVIPTHSQEVNDLHIWFLEEASERGLLPIPDEGASRFFLEVAGIYKKRGIYRAADYSCSMALRHMRDEGGLALLRELPRVAYLKYYFRKKQFKSYLRELRRSTVRRSLLEHHHHHH | not soluble
2 | MQNEQLLQEVGLNAYEAAAYLSLLKLGVSEASDIYRDSEVPYGKIYSVLESLAGKGFVEVQASRPKKFRAVDPELALDTFFERRKAEVEREMAFLKSSVEEAKSVLKAVPTQKRKDEFFWTTAITESEIKKFAVSIYSEVKKSVCVLPPVFGISIVFYLLPEITKAIDRGVRIKLMISPRFMALASVLSHQEGEILEKLKKGLDIRLVQNSNSCFGIVDDSIVVLFQPHPTDRDRVLSVVKVRDSGLAKNLKEEFDLLWNAGEKLDLQEELEDKQNPGKN | not soluble
3 | MQNSLLTQHIAQIIAAEISSQPTQARAAIALLDEGASVPFIARYRKEATGGLDDTQLRILETRLTYLRELEERRSTILTSITEQGKLNDLLHAEILAADTKSRLEDLYLPYKPKRRTRAQIAREAGLEPLADSLLADPTLIPETVAANFVDPEKGITDIKTALEGARAILIERWGEDAALIGELRQWLANNGVIHARLIDNKEDTGAKYRDYFNHTELLSKIPSHRLLALFRARSEEILHLDLDPGNDADAGHQYCESMVMQAACVADQGRPADTWLMTACRLTWRAKLHMHLMLDLFNQAREKAEAEAITVFSNNLKDLLLAAPAGPRIVLGIDPGIRTGCKIAIVDTTGKLIATETIYPHEPRREWDKSLHTLKTLCTQHHITLIAIGNGTASRETDKLVSDLIKAHPALELQKIVVSESGASVYSASESAAKEFPDLDVSLRGAVSIARRLQDPLAELVKIDPKAIGVGQYQHDVDQFHLAKALDARVEDCVNAVGVYVNTASAALLSRVSGLSASVAENITRYRDEHGSFKQRQDLLKVPRLGAKTFEQCAGFLRIADGNQPLDASAVHPEAYPVVERIVQTTGKPIKALIGDSHTLRMLKPEQFTDTNFGIPTIRDIIKELEKPGRDPRPEFKAVRFTEGVENIKDLKPGMILEGVVSNVAAFGAFVDIGVHQDGLIHISALADRFVKDPRDIVKAGDIVKVKVLEIDVPRKRIALTCRLHEETPPETPVANRTGNERGRPNPVAKKVKATPTDNALAQAFARARLK | soluble
4 | MQNVKHSYLACSSSSCCQFFSLFLSLCHAEHQIQTLSPSFAYTLLIFALLVSDKSEIALLSRHTHTYIFLPISSVHPSLELLPFVVFMHMRKLLNDVIRPLKKGDGRSAWNVLIVDTLAMRMLSSCCKMHNIMEEGITIVEDLNKRREPLPTLEAIYLIAPTAESIDKLIQDYCARNLYKCAHVFFTEACSDQLFSTLSKSAAARFIKTLKEINIAFTPYESQVFNLDSPDTFFLYYNAQKQGGLTSNLERIAEQIATVCATLGEYPSLRYRADFERNVELGHLVEQKLDAYKADDPSMGEGADKARSQLIIIDRGYDAITPLLHELTLQAMCYDLLGIENDVYKYETGGSDENLEKEVLLDENDDLWVEMRHKHIAVVSQEVTKNLKKFSESKGNKGTMDSKSIKDLSMLIKRMPQHKKELNKFSTHISLAEECMKQYQQGVDKLCKVEQDLSTGIDAEGERVRDAMKLMVPLLIDPAVRCEDRLRLILLYILSKNGITDENLNKLLQHANISMADKETITNAAYLGLNIVTDTGRKKTWTPTKKERPHEQVYQSSRWVPVIKDIIEDAIDERLDTKHFPFLAGRQVNQGYRAPASARYGQWHKERGQQSNYRSGPRLIIYIIGGVTFSEMRACYEVTAARKPWEVVIGSDRIITPDKFLTNLRDLNKPRDI | soluble
5 | MQPLVSVLICAYNVEKYFAQSLAAVVNQTWRNLDILIVDDGSTDGTPAIARRFQEQDGRIRIISNPRNLGFIASLNIGLDELAKSGGGGEYIARTDADDIASPGWIEKIVGEMEKDRSIIAMGAWLEVLSEENNKSVLAAIARNGAIWDKPTRHEDIVAVFPFGNPIHNNTMIMRRSVIDGGLRFDPAYIHAEDYKFWYEAGKLGRLAYYPEALVKYRFHQDQTSSKYNLQQRRTAWKIKEEIRAGYWKAAGIAVGADCLNYGLLKSTAYALYEKALSGQDIGCLRLFLYEYFLSLEKYSLTDLLDFLTDRVMRKLFAAPQYRKILKKMLRPWKYRSYLEHHHHHH | not soluble
6 | MQQYIGIDVGGTHVKYGVINSDGEELTHHQFDTPEDASTFTRKWQDVVARCQQDYDIAAIGVSFPGHINPHNGHAAKAGALAYLDDVNLMELFSGLTDLPLVVENDANCAALGEMWRGAGQHYENMVCITIGTGIGGGIIVGRELYRGAHFHAGEFGVMPVGNNGESMHKIASTSGLMASCRQALALPAEEMPPADVIFERMATDVHLREAVNDWARYLSRGVYSVISMFDPGVVLIGGGISEQEKLYPLLTRHLETFEMWEALQVPIQPCQLGNQAGRLGAVWLAQQKLDRG | not soluble
7 | MQRARCYLLGETAVVLELEPPITLASQKRIWRLTQRLVDMPNVVEAIPGMNNITVILREPQTLALDAIERLQRWWEESEALEPDSRSVEIPVIYGGAGGPDLAAVARHSGLSEKQVVELHASVEYVVWFLGFQPGFPYLGNLPEPLHMPRRAEPRLQVPAGSVGIGGAQTGIYPLSTPGGWQLIGLTPLKLFDPMRETPVLLRPGDSVRFVPQKEGICMAGDPLEHHHHHH | not soluble
8 | MQRVTITLDDDLLETLDSLSQRRGYNNRSEAIRDILRGALAQEATQEHGTQGFAVLSYVYEHEKRDLASRIVSTQHHHHDLSVATLHVHINHDDCLEIAVLKGDMGDVQHFADDVIAQRGVRHGHLQCLPKED | not soluble
9 | MQRVVVAIDAKRVDGEFMVFTHSGKKNTGILLRDWVVEVEKRGAGEILLTSIDRDGTKSGYDTEMIRFVRPLTTLPIIASGGAGKMEHFLEAFLAGADKALAASVFHFREIDMRELKEYLKKHGGSGQAVVVAIDAKRVDGEFMVFTHSGKKNTGILLRDWVVEVEKRGAGEILLTSIDRDGTKSGYDTEMIRFVRPLTTLPIIASGGAGKMEHFLEAFLAGADAALAASVFHFREIDMRELKEYLKKHGVNVRLEGLLEHHHHHH | soluble
10 | MQSASDGFSKMIKTLLYITPDPCPECGGNLYAWRAKNKDGSDRCPPTCMECGYKARKKAEDLETEKMFNDSLKARAINYLKYSSLYTDKNLINCRFKTYKTVDTETKLAFEIANRATTEILLNKPIHMILSGKSGVGKSHLAMSTAWEVLEKSNYDKRCLFISYAELLEQLKFAMNDEQARKEITGSLMAEIKSADLVVLDDLGAELGVKQIDDRNKSTNFNNDTLNRIVEARQNKATIFTTNLTGKEMSQAYGERILSRIMSNSQGFVMKIEGTSDKRVAGILEHHHHHH | soluble
11 | MQSFADAKEFFQYSAGQWQSRRVTHHLPFRRAESGGSNIQVETLEKDDPRIIEICQMHDMDASLSVGGSYVTWAGTMQWDKDDENHEGSTVFALIPDADNPRQGKLLRERGYAEIVPVAGEYHLDHEDGLVLTTEYETMTIYERFWFANPDLRLRTSTVKRFGGFNTTTFCMEERIQTSPVTATAAAETNPLYAISGW | not soluble
